Results from patent publication US20110294740A1.
pKd: −log10 of the molar value.

Biological target: Dutch/Iowa CAA double mutant Aβ40 (UniProt P05067)
Assay: SPR, Aβ peptide immobilised, MBP as analyte

Sequence of Dutch/Iowa CAA double mutant Aβ40 (P05067 672-711, change not shown): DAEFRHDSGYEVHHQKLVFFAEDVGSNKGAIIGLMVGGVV
Sequence of myelin basic protein (purified MBP) (P02686 135-304 limits assumed): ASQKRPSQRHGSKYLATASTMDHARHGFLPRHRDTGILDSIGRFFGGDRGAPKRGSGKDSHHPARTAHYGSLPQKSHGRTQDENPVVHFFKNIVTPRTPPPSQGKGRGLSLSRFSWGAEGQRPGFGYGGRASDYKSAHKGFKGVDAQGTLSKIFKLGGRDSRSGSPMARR

pKd: 7.77
Substance: myelin basic protein (purified MBP) (from UniProt P02686 2-171)
